Assay results reported in patent publication US20230014398A1 (University of Texas, published 2023).

How the values were obtained:
[1] = biological target: TLR5 on HCT116 cells (UniProt O60602); experiment: cell-based or functional assay
[2] = biological target: T1, Mouse 2Ig-B7-H3 extracellular domain (mouse, UniProt Q8VE98 29-248); experiment: ratio of Kd values, told as the reason for using 100 ug/mL MIL33B-A594 on Pan02 cells
T1 construct: extracellular domain; Purchased recombinant extracellular domain; also called murine 2Ig-B7-H3
T1 sequence (looked up): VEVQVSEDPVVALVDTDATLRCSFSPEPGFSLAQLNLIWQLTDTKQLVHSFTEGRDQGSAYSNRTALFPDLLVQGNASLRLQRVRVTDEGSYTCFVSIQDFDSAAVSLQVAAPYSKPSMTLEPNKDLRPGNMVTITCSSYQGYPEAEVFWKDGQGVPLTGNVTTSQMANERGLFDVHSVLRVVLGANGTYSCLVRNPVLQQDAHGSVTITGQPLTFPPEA

[3] = biological target: T2, Human 4Ig-B7-H3 extracellular domain (human, UniProt Q5ZPR3 29-466); experiment: biolayer interferometry (Octet), comparison of Kd values of Table 6
T2 construct: extracellular domain
T2 sequence (looked up): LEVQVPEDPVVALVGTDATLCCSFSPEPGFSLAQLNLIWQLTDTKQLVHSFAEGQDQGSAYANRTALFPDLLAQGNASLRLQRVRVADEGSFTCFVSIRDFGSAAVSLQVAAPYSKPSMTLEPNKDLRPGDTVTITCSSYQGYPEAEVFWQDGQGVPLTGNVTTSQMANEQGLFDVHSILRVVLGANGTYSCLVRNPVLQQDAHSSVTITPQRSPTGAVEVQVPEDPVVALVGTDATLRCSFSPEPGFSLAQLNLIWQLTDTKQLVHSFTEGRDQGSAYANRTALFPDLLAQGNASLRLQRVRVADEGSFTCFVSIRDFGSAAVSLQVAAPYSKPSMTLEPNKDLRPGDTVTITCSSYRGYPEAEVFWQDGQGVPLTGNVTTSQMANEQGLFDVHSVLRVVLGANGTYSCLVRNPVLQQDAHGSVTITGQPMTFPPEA
From the text: (§1) The extracellular domains of the indicated B7 family proteins were purchased from R&D Systems. All proteins were validated by the vendor to be both pure and functional.

[4] = biological target: T1, Mouse 2Ig-B7-H3 extracellular domain; experiment: biolayer interferometry (Octet), MIL33B captured on the probe, extracellular domain in solution
Method: (§2) Dissociation constants, Kd, were determined utilizing biolayer interferometry (Octet) assays. […] The surface is then placed into a solution of analyte and the phase shift indicating binding was measured over time. The probe was then moved into a solution without analyte and the time course of off-binding was measured. This cycle was repeated for multiple analyte concentrations, and the Kd was calculated from global curve fitting of the concentration- and time-dependence of the analyte binding to the antibody.
as §1

[5] = biological target: T3, Human 2Ig-B7-H3 extracellular domain (human, UniProt Q5ZPR3 29-466); experiment: as above
T3 chain: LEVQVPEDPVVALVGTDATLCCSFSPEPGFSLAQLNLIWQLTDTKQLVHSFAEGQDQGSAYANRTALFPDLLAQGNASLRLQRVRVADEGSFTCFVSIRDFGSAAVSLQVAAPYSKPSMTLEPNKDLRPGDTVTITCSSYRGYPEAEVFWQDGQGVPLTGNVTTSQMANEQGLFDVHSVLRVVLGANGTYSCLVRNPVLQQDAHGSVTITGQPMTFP
Method: as §2, §1

[6] = biological target: T2, Human 4Ig-B7-H3 extracellular domain; experiment: as above
Method: as §2, §1

[7] = biological target: T2, Human 4Ig-B7-H3 extracellular domain; experiment: ELISA, extracellular domain plated on 96-well plates, MIL33B titrated, absorbance read
From the text: The extracellular domains of human 4Ig-B7-H3 and murine 2Ig-B7-H3 were purchased and plated down onto 96-well plates. […] Plates were then washed and assessed for antibody binding through absorbance measurements.

[8] = biological target: T2, Human 4Ig-B7-H3 extracellular domain; experiment: ELISA
[9] = biological target: T4, Murine 2Ig-B7-H3 expressed on cells (mouse, UniProt Q8VE98 29-316); experiment: live cell immunofluorescence microscopy on Pan02 cells, MIL33B-A594 at 100 µg/mL; one panel blocked with unlabeled MIL33B
T4 construct: whole, on cells; also called murine B7-H3 expressed on tumor cells; 2Ig-B7-H3 on Pan02 and 4T1 cells
T4 sequence (looked up): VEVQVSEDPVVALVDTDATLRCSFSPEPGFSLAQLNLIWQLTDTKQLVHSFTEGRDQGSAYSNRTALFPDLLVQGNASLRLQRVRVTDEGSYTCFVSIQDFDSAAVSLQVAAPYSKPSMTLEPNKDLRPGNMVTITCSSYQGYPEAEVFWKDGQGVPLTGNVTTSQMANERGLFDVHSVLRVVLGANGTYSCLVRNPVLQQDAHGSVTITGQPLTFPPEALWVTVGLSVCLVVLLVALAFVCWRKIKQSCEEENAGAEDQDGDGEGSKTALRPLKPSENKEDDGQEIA
From the text: (§3) Cells were washed and imaged by fluorescence microscopy (TiE, Nikon).

[10] = biological target: T5, Human 4Ig-B7-H3 expressed on cells (human, UniProt Q5ZPR3 29-534); experiment: live cell immunofluorescence microscopy on 4T1 cells transduced with human 4Ig-B7-H3, labeled antibody at 1 µg/mL
T5 construct: whole, on cells; also called native 4Ig-B7-H3 on HeLa and HCT116 cells; human 4Ig-B7-H3 on transduced 4T1, B16F10 and L cells
T5 sequence (looked up): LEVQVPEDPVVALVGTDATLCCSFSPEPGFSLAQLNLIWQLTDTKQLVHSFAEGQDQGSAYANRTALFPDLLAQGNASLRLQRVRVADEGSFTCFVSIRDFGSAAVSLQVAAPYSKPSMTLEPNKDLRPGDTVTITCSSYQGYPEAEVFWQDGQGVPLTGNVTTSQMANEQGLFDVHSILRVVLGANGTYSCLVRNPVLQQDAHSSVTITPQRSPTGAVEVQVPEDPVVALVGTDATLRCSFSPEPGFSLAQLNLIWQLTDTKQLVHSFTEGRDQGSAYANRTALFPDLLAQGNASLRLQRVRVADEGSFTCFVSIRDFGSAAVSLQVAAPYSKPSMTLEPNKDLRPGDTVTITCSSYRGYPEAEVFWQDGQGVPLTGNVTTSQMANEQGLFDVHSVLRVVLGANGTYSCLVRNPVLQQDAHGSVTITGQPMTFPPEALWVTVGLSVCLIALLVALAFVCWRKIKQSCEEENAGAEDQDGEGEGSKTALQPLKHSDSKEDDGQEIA
From the text: Murine breast tumor, 4T1 cells (ATCC), were stably transduced with human 4Ig-B7-H3 or empty vector using lentiviral constructs.
as §3

[11] = biological target: T5, Human 4Ig-B7-H3 expressed on cells; experiment: in vivo PET of 89Zr-DFO-labeled antibody in mice bearing 4T1 or B16F10 tumors with human 4Ig-B7-H3 or vector control, %ID/cc of tumor VOIs at 24 and 72 hr
From the text: (§4) Immune competent mice bearing subcutaneous 4T1 tumors expressing human 4Ig-B7-H3 or negative vector (see Western blots in FIG. 3) were utilized. […] Similarly, B16F10 cells were transduced with human 4Ig-B7-H3 or empty vector. These cells have less endogenous murine 2Ig-B7H3 than 4T1 tumors.

[12] = biological target: T4, Murine 2Ig-B7-H3 expressed on cells; experiment: PET imaging in mice with 4T1 or B16F10 tumors carrying the negative (empty) vector, with endogenous murine 2Ig-B7-H3 only, 24 and 72 hr after injection
From the text: as §4

Chain of TLR5 on HCT116 cells (O60602 21-858 limits assumed): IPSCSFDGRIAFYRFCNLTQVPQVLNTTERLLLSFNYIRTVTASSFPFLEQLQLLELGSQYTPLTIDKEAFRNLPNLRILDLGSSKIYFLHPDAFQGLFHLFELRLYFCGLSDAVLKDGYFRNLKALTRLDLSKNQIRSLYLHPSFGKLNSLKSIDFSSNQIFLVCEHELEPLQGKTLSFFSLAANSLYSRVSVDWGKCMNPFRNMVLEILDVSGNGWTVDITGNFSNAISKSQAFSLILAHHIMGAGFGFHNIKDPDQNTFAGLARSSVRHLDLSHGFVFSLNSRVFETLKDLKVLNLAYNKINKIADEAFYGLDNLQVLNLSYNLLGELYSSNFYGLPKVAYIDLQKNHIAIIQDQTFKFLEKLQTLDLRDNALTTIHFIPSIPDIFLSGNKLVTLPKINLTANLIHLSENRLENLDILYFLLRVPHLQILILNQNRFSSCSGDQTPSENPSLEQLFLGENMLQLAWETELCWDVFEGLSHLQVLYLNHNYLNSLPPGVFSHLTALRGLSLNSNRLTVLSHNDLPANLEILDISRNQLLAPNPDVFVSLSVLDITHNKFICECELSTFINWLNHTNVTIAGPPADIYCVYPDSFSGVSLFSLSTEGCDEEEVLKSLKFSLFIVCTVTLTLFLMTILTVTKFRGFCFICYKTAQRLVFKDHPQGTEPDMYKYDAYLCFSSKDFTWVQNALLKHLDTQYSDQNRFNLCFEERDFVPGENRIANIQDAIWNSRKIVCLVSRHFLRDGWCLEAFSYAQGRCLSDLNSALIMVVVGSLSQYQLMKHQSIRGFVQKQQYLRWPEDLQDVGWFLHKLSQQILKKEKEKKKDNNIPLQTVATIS

Molecule: Purified flagellin (ligand)
- activation of NF-kB (kB-RE5-IkBa-Fluc reporter in HCT116 cells) [1]: 1.8 nM

B1: MIL33B monoclonal antibody (antibody, IgG2a, V domains shown)
VH: EVQLQQSGPELVKPGASVKMSCKASGYTFTSYVMHWVRQSPGQGLEGIGYINSYSDGTKYNEKFKGKATLTSDKSSSTAYMELSGLTSEDSAVYYCARWGGLGNGAMDYWGQGTSVTVSS
VL: QIVLTQSPAIMSASPGEKVTMTCSVSSSVNYMHWYQQKSGTSPKRWIYDTSKLASGVPARFSASGSGTSYSLTISSMEAEDAATYYCQQWTSNPLTFGAGTKLELK
notes: Mouse hybridoma antibody from an NZBWF1/J mouse; constant regions are not; also called MIL33B mAb; MIL33B antibody
- fold shift in Kd from human 4Ig-B7-H3 to murine 2Ig-B7-H3 [2]: ~100 fold
- fold better binding than to other B7 family members [3]: ≥ 1000 fold
- Kd [4]: 41.1 nM
- Kd [5]: 0.58 nM
- Kd [6]: 0.0723 nM
- EC50 (read off the curve) [7]: ~0.1 nM

B2: Flagellin-conjugated MIL33B (other)
VH: EVQLQQSGPELVKPGASVKMSCKASGYTFTSYVMHWVRQSPGQGLEGIGYINSYSDGTKYNEKFKGKATLTSDKSSSTAYMELSGLTSEDSAVYYCARWGGLGNGAMDYWGQGTSVTVSS
VL: QIVLTQSPAIMSASPGEKVTMTCSVSSSVNYMHWYQQKSGTSPKRWIYDTSKLASGVPARFSASGSGTSYSLTISSMEAEDAATYYCQQWTSNPLTFGAGTKLELK
modifications: MIL33B (mouse IgG2a) is chemically conjugated to purified flagellin through a commercial linker kit. Attachment sites and the number of flagellins per antibody are not stated, and the letters cannot carry them.
notes: Chemical conjugate of MIL33B (mouse IgG2a) and flagellin; also called MIL33B-flgn conjugate; MIL33B-flagellin conjugate; not shown: Flagellin (purified, InvivoGen)
- EC50 [8]: 36 nM

B3: MIL33B labeled with Alexa594 fluorophore (antibody, V domains shown)
VH: EVQLQQSGPELVKPGASVKMSCKASGYTFTSYVMHWVRQSPGQGLEGIGYINSYSDGTKYNEKFKGKATLTSDKSSSTAYMELSGLTSEDSAVYYCARWGGLGNGAMDYWGQGTSVTVSS
VL: QIVLTQSPAIMSASPGEKVTMTCSVSSSVNYMHWYQQKSGTSPKRWIYDTSKLASGVPARFSASGSGTSYSLTISSMEAEDAATYYCQQWTSNPLTFGAGTKLELK
modifications: Alexa594 fluorophore on the antibody, residues not stated
notes: also called MIL33B-A594; Alexa594-labeled MIL33B
- binding result [9]: binds
- binding result [10]: binds

B4: MIL33B conjugated with DFO and radiolabeled with 89Zr (antibody, mouse IgG2a, V domains shown)
VH: EVQLQQSGPELVKPGASVKMSCKASGYTFTSYVMHWVRQSPGQGLEGIGYINSYSDGTKYNEKFKGKATLTSDKSSSTAYMELSGLTSEDSAVYYCARWGGLGNGAMDYWGQGTSVTVSS
VL: QIVLTQSPAIMSASPGEKVTMTCSVSSSVNYMHWYQQKSGTSPKRWIYDTSKLASGVPARFSASGSGTSYSLTISSMEAEDAATYYCQQWTSNPLTFGAGTKLELK
modifications: DFO chelator with 89Zr on the antibody, residues not stated
notes: also called MIL33B-DFO; radiolabeled MIL33B antibody
- binding result [11]: binds
- binding result [12]: binds
